Laboratory results taken from patent publication US20090111745A1.

Target: human serum albumin (human), P02768
Assay: sandwich ELISA, HSA coated at 10 µg/ml, conjugate at 1 µM, detection with anti-FITC antibody

OD600: 0.38 OD600
B1: DOM7h-8cys/FITC conjugate (protein)
VL: DIQMTQSPSSLSASVGDRVTITCRASQSISSYLNWYQQKPGKAPKLLIYRNSPLQSGVPSRFSGSGSGTDFTLTISSLQPEDFATYYCQQTYRVPPTFGQGTKVEIKC
modifications: not checked
